Residue numbers refer to the chain shown, from its start.

The values that follow come from patent US20220064294A1 (ARCUS BIOSCIENCES, published 2022).

T1: human TIGIT, full length, on cells (human, UniProt Q495A1 22-244)
T1 construct: also called hTIGIT; hTIGIT-CHO
T1 sequence: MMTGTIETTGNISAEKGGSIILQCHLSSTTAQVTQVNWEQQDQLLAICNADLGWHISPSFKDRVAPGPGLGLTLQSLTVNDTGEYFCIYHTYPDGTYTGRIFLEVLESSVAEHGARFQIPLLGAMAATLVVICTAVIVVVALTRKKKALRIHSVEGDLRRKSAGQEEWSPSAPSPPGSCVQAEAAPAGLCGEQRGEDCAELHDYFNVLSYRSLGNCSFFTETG

T2: soluble His-tagged TIGIT (Acro Biosystems, Cat #No. TIT-H52H3) (human, UniProt Q495A1 22-141)
T2 construct: Bought protein; also called His-tagged human TIGIT
T2 sequence (looked up): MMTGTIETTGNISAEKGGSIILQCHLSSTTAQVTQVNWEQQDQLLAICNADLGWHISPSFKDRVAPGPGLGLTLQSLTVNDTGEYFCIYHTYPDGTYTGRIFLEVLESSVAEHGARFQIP

B1: Ch21B9 (antibody, human IgG1, V domains shown)
VH: EVQLVESGGGLVKPGGSLKLSCTASGFTFSSYAMSWVRQSPEKRLEWVAEISSGGSYTYYTDTVTGRFTISRDNAKNTLYLEMSSLRSEDTAMYYCARKRRDYYGMDYWGQGTSVTVSS
VL: DVQITQSPSYLAASPGETITINCRASKSISKYLAWYQEKPGKTNKLLIYSGSTLQTGIPSRFSGSGSGTDFTLTISSLEPEDFAMYYCQQHNEYPWTFGGGTKLEIK
notes: also called recombinant anti-TIGIT mouse/human chimera antibody 21B9
B2: Ch22B22 (antibody, human IgG1, V domains shown)
VH: B1 VH with T23A, T61P, G105A
VL: B1 VL with T56S
notes: Expressed in HEK293, purified on Protein A; also called recombinant anti-TIGIT mouse/human chimera antibody 22B22
B3: Ch21B16 (antibody, human IgG1, V domains shown)
VH: B1 VH with T23A, S31T, S56T, Y60F, T61P, G105A
VL: B1 VL with T56S, M85V
notes: also called recombinant anti-TIGIT mouse/human chimera antibody 21B16
B4: Ch28O12 (antibody, human IgG1, V domains shown)
VH: B1 VH with T23A, S31N, S53G, Y60H, T61P, G105A
VL: B1 VL with T56S
notes: also called recombinant anti-TIGIT mouse/human chimera antibody 28O12
B5: Ch5J24 (antibody, human IgG1, V domains shown)
VH: QVQLQQSGAELVRPGTSVKMSCKAAGYTFTNHWIGWVKQRPGHGLEWIGDIYPGGGYTNYNEKFKGKATLTADTSSSTAYMYLSSLTSEDSAIYYCARSYGYDLYAMDYWGQGTSVTVSS
VL: DIQMTQSPSSLSASLGERVSLTCRASQEISGYLSWLQQKPDGTIKRLIYAASTLGSGVPKRFSGSRSGSDYSLTISSLESEDFADYYCLQYDSYPFTFGAGTKLELK
notes: also called recombinant anti-TIGIT mouse/human chimera antibody 5J24
B6: Ch30M18 (antibody, human IgG1, V domains shown)
VH: EVQLQQSGPELVKPGASVKISCKTSGYTFTEYTMHWVKQSHGKSLEWIGGINPNNGGTSYNQKFKGKATLTVDKSSSTAYMELRSLTSEDSAVYYCARSGHMDYGYVYWGQGTTLTVSS
VL: DIVMTQSHKFMSTSVGDRVSITCKASQYVSTAVAWYQQKPGQSPKLLIYSPSYRYTGVPDRFTGSGSGTDFTFTISSVQAEDLAVYYCQQHYSTPWTFGGGTKLEIK
notes: also called recombinant anti-TIGIT mouse/human chimera antibody 30M18
B7: 24F8 (antibody, V domains shown)
VH: DVQLQESGPDLVKPSQSLSLTCTVTGYSITSGYSWHWIRQFPGNKLDWMGYVHYSGSTNYNPSLKSRISITRDTSKNQFFLQLNSVTTEDTATFYCARMDYGNYGGAMDYWGQGTSVTVSS
VL: B6 VL with D1E, Y28D, S30R, P51A, H91Y, P95Q
notes: Mouse monoclonal antibody purified from hybridoma on Protein G; also called mAb 24F8; mouse anti-TIGIT clone 24F8
B8: 30M18 (antibody, V domains shown)
VH: B6 VH
VL: B6 VL
notes: Mouse monoclonal antibody purified from hybridoma on Protein G; also called mAb 30M18; mouse anti-TIGIT clone 30M18

The first experiment concerns the target T3, cynomolgus monkey TIGIT, full length, on cells (cynomolgus monkey).
T3 construct: Whole entry of 312 amino acids; also called cyno TIGIT; cTIGIT
In words: flow cytometry on cTIGIT-CHO cells. As to the method:
(§1) These clones were further expanded, and antibodies were purified using a Protein G column. These purified antibodies were tested for binding to human and cyno TIGIT expressed on cell surface by flow cytometry. Stable CHO-K1 cell lines expressing full length human TIGIT clone 2A7 (Swiss-Prot Q495A1; SEQ ID NO: 80) or full length cyno TIGIT clone C10 (Swiss-Prot A0A2K5UW92; SEQ ID NO: 84) were developed. For the flow assay, cells were collected and incubated in 100 μL of HBSS buffer in the presence (or absence) of various concentrations of antibodies for 1 hr at 4° C. After washing with HBSS, antibody binding on cells was detected with 2 μg/mL of Alexa488-labeled goat anti-mouse IgG antibody (ThermoFisher Scientific, Cat #A-11001) for 30 min at 4° C. Cells were then washed and resuspended in PBS and subjected to flow cytometry using an Attune NxT flow cytometer (ThermoFisher Scientific, Waltham, Mass.). The geometric mean of the fluorescence intensity was obtained for the whole single cell population. Antibodies capable of binding to both human and cyno TIGIT expressed on cell surface were further tested for their blocking activity against recombinant human CD155 binding to human TIGIT on the surface of CHO cells. CHO-hTIGIT cells (10⁵ cells) were incubated with 2.5 μg/mL hCD155-Fc protein in the presence of various concentrations of antibody at room temperature for 1 hr. […] Cells were then washed and subjected to flow cytometry analysis.
(§2) The binding capability of these chimera anti-TIGIT antibodies to cell surface overexpressed human and cyno TIGIT was confirmed utilizing the flow cytometry assay previously described. After incubation of chimera anti-TIGIT antibody with hTIGIT-CHO or cTIGIT-CHO, bound antibody was detected using Alexa488 conjugated goat anti-human IgG antibody (ThermoFisher Scientific, Cat #A-11013). Antibody functional activity in inhibiting recombinant hCD155-hFc binding to hTIGIT-CHO-K1 cells was also determined using flow assay as previously described.
A general note: In flow cytometry, cells or beads pass a laser one at a time.
With B1, the EC50 was found to be 0.18 nM.

B2 registered an EC50 of 0.24 nM.

B3: the response was half-maximal at 0.42 nM (EC50).

For the molecule B4, the EC50 is 0.358 nM.

For B5, the midpoint of the response, the EC50, lay at 0.212 nM.

Consider B6, for which the response was half-maximal at 6.14 nM (EC50).

The target of another experiment is T1, human TIGIT, full length, on cells. In words: flow cytometry on hTIGIT-CHO cells. As to the method: as §1, §2
B1 returned an EC50 of 0.102 nM.

In turn, B2 yielded an EC50 of 0.16 nM.

For B3, the EC50 came out at 0.12 nM.

B4 displayed an EC50 of 0.159 nM.

For B5, the EC50 came out at 0.131 nM.

On to B6, for which the EC50 was 0.336 nM.

A further experiment addresses T3, cynomolgus monkey TIGIT, full length, …. In words: flow cytometry on CHO-K1 cells expressing cyno TIGIT. As to the method:
as §1
Consider B7, for which the EC50 amounted to 1.85 nM.

Molecule B8 showed an EC50 of 1.17 nM.

The target of another experiment is T1, human TIGIT, full length, on cells. The experiment can be described thus: flow cytometry on CHO-K1 cells expressing human TIGIT. On the procedure:
as §1
For the molecule B7, the EC50 is 1.31 nM.

Regarding B8, the EC50 came to 0.825 nM.

For a further experiment the target is unchanged. In words: flow cytometry, endogenous TIGIT on isolated human CD4+ T cells. On the procedure: (§3) The ability of chimera anti-TIGIT antibodies to bind to endogenously expressed TIGIT on isolated human CD4⁺ and CD8⁺ cells was tested using a flow cytometry assay. Human CD4⁺ or CD8⁺ T cells were isolated from human whole blood using RosetteSep™ Human CD4⁺ T cell Enrichment Cocktail (Stemcell, Cat #15022) or Human CD8⁺ T cell enrichment Cocktail (Stemcell, […]), respectively. […] However, differences in max binding activity (MFImax) was observed between clones.
Consider B1, for which the “CD4+ MFImax” value worked out at 150 MFI and it took 0.029 nM to reach a half-maximal effect (EC50).

For B2, the “CD4+ MFImax” value was 140 MFI and the midpoint of the response, the EC50, lay at 0.097 nM.

In the case of B3, the “CD4+ MFImax” value was found to be 180 MFI and the EC50 was 0.119 nM.

On to B4, for which the “CD4+ MFImax” value was found to be 190 MFI and the EC50 turned out to be 0.141 nM.

Turning to B5, the “CD4+ MFImax” value is 125 MFI and a half-maximal effect (EC50) was put at 0.073 nM.

Take B6: the “CD4+ MFImax” value was found to be 125 MFI and the EC50 was determined as 0.197 nM.

A further experiment shares this target. The experiment can be described thus: flow cytometry, endogenous TIGIT on isolated human CD8+ T cells. On the procedure:
as §3
Take B1: the “CD8+ MFImax” value amounted to 4500 MFI and it took 0.062 nM to reach a half-maximal effect (EC50).

B2: the “CD8+ MFImax” value came to 5000 MFI and the EC50 came to 0.175 nM.

For the molecule B3, the “CD8+ MFImax” value amounted to 5200 MFI and the EC50 was 0.16 nM.

In the case of B4, the “CD8+ MFImax” value came to 7200 MFI and the EC50 is 0.249 nM.

B5: the “CD8+ MFImax” value turned out to be 4500 MFI and the EC50 is 0.117 nM.

Consider B6, for which the “CD8+ MFImax” value came out at 3500 MFI and the midpoint of the response, the EC50, lay at 0.293 nM.

The target is the same in another experiment. In words: flow cytometry, inhibition of hCD155-Fc binding to CHO-hTIGIT cells. As to the method:
as §1
As for B7, the IC50 came to 1.79 nM.

For B8, the IC50 was 2.19 nM.

The target is the same in another experiment. The experiment can be described thus: flow cytometry, inhibition of hCD155-hFc binding to hTIGIT-CHO-K1 cells. On the procedure: as §1, §2
Turning to B1, the IC50 was found to be 0.8 nM.

B2 displayed an IC50 of 1.16 nM.

In turn, B3 showed an IC50 of 0.2 nM.

In turn, B4 had an IC50 of 0.48 nM.

The molecule B5 displayed an IC50 of 0.7 nM.

In turn, B6 gave an IC50 of 2.18 nM.

A further experiment has as its target T2, soluble His-tagged TIGIT (Acro …). In words: SPR, ProteOn XPR36, antibody on Protein A chip, soluble His-tagged TIGIT as analyte, 25 C. On the procedure: The kinetic binding of these recombinant anti-TIGIT antibodies to human TIGIT was determined by surface plasmon resonance (SPR) using a Bio-Rad ProteOn XPR36 instrument. Recombinant antibodies were immobilized using a Protein A coated GLC sensor chip, and soluble His-tagged TIGIT (Acro Biosystems, Cat #No. TIT-H52H3) was used as the analyte. The binding constants were determined at 25° C.
(In general: Surface plasmon resonance follows binding to a sensor surface in real time, without labels.)
Turning to B1, the Kd was 7.1 nM, the koff was determined as 0.074 s⁻¹ and the kon stood at 1.05e+07 M⁻¹ s⁻¹.

Take B2: the Kd was 9.78 nM, the koff is 0.0141 s⁻¹ and the kon came to 1.44e+06 M⁻¹ s⁻¹.

In turn, B3 displayed a Kd of 6.3 nM, a koff of 0.00929 s⁻¹ and a kon of 1.47e+06 M⁻¹ s⁻¹.

Regarding B4, the Kd came to 0.904 nM, the koff was determined as 0.00113 s⁻¹ and the kon amounted to 1.26e+06 M⁻¹ s⁻¹.

On to B5, for which the Kd turned out to be 3.85 nM, the koff was determined as 0.0214 s⁻¹ and the kon was 5.57e+06 M⁻¹ s⁻¹.

In the case of B6, the Kd turned out to be 2.38 nM, the koff turned out to be 0.00173 s⁻¹ and the kon was found to be 727000 M⁻¹ s⁻¹.

Usually EC50 stands for the concentration at which the effect is half-maximal. The term IC50 denotes the concentration at which inhibition is half-maximal. In general, Kd refers to a measure of binding affinity in units of concentration. Broadly, the koff is the rate constant with which the complex falls apart. Broadly, the kon is the second-order rate constant of association.
